{
  "source": "paper PMC12102759",
  "about": "(2025)",
  "parents": {"B1": {"name": "NOTCH4 peptide 1606-1621 (Neurogenic locus notch homolog protein 4), 16-mer library wild type / NSP9 (ORF1ab Nsp9, residues 4141-4253) (parent complex)", "chain 1": "QGAWLGAPEPWEPLLD", "chain 2": "NNELSPVALRQMSCAAGTTQTACTDDNALAYYNTTKGGRFVLALLSDLQDLKWARFPKSDGTGTIYTELEPPCRFVTDTPKGPKVKYLYFIKGLNNLNRGMVLGSLAATVRLQ"}},
  "data": [
    {"variants_of": "B1", "assay": "bait immobilised on MaxiSorp plates (10 µg), library pre-cleared on GST, 2 h binding at 4 °C, five washes; one round per day, days 1-4; value from days 2 and 3", "values": [
      {"variant": "chain 1 QGQWLGAPEPWEPLLD", "screen value": "0.000713 average fractional NGS count over selection days 2 and 3 (reads of this peptide / all reads for the bait, averaged over …"},
      {"variant": "chain 1 QGIWLGAPEPWEPLLD", "screen value": "0.00198 average fractional NGS count over selection days 2 and 3 (reads of this peptide / all reads for the bait, averaged over …"},
      {"variant": "chain 1 QGTWLGAPEPWEPLLD", "screen value": "0.00113 average fractional NGS count over selection days 2 and 3 (reads of this peptide / all reads for the bait, averaged over …"},
      {"variant": "chain 1 QGWWLGAPEPWEPLLD", "screen value": "0.000101 average fractional NGS count over selection days 2 and 3 (reads of this peptide / all reads for the bait, averaged over …"},
      {"variant": "chain 1 QGAWLGLPEPWEPLLD", "screen value": "0.000927 average fractional NGS count over selection days 2 and 3 (reads of this peptide / all reads for the bait, averaged over …"},
      {"variant": "chain 1 QGAWLGTPEPWEPLLD", "screen value": "0.00295 average fractional NGS count over selection days 2 and 3 (reads of this peptide / all reads for the bait, averaged over …"},
      {"variant": "chain 1 QGAWLGYPEPWEPLLD", "screen value": "0.000616 average fractional NGS count over selection days 2 and 3 (reads of this peptide / all reads for the bait, averaged over …"},
      {"variant": "chain 1 QGAWLGMPEPWEPLLD", "screen value": "0.000666 average fractional NGS count over selection days 2 and 3 (reads of this peptide / all reads for the bait, averaged over …"},
      {"variant": "chain 1 QGAWLGWPEPWEPLLD", "screen value": "0.000255 average fractional NGS count over selection days 2 and 3 (reads of this peptide / all reads for the bait, averaged over …"},
      {"variant": "chain 1 QGAWLGVPEPWEPLLD", "screen value": "0.00673 average fractional NGS count over selection days 2 and 3 (reads of this peptide / all reads for the bait, averaged over …"},
      {"variant": "chain 1 QGAWLGSPEPWEPLLD", "screen value": "0.00083 average fractional NGS count over selection days 2 and 3 (reads of this peptide / all reads for the bait, averaged over …"},
      {"variant": "chain 1 QGAWLGNPEPWEPLLD", "screen value": "0.00161 average fractional NGS count over selection days 2 and 3 (reads of this peptide / all reads for the bait, averaged over …"},
      {"variant": "chain 1 QGAWLGFPEPWEPLLD", "screen value": "0.000134 average fractional NGS count over selection days 2 and 3 (reads of this peptide / all reads for the bait, averaged over …"},
      {"variant": "chain 1 QGAWLGPPEPWEPLLD", "screen value": "0.000551 average fractional NGS count over selection days 2 and 3 (reads of this peptide / all reads for the bait, averaged over …"},
      {"variant": "chain 1 QGAWLGAPEVWEPLLD", "screen value": "0.00245 average fractional NGS count over selection days 2 and 3 (reads of this peptide / all reads for the bait, averaged over …"},
      {"variant": "chain 1 QGAWLGAPETWEPLLD", "screen value": "0.00164 average fractional NGS count over selection days 2 and 3 (reads of this peptide / all reads for the bait, averaged over …"},
      {"variant": "chain 1 QGAWLGAPEGWEPLLD", "screen value": "0.000535 average fractional NGS count over selection days 2 and 3 (reads of this peptide / all reads for the bait, averaged over …"},
      {"variant": "chain 1 QGAWLGAPEDWEPLLD", "screen value": "0.00968 average fractional NGS count over selection days 2 and 3 (reads of this peptide / all reads for the bait, averaged over …"},
      {"variant": "chain 1 QGAWLGAPEIWEPLLD", "screen value": "0.00391 average fractional NGS count over selection days 2 and 3 (reads of this peptide / all reads for the bait, averaged over …"},
      {"variant": "chain 1 QGAWLGAPEEWEPLLD", "screen value": "0.00264 average fractional NGS count over selection days 2 and 3 (reads of this peptide / all reads for the bait, averaged over …"},
      {"variant": "chain 1 QGAWLGAPEAWEPLLD", "screen value": "0.000635 average fractional NGS count over selection days 2 and 3 (reads of this peptide / all reads for the bait, averaged over …"},
      {"variant": "chain 1 QGAWLGAPEQWEPLLD", "screen value": "0.000676 average fractional NGS count over selection days 2 and 3 (reads of this peptide / all reads for the bait, averaged over …"},
      {"variant": "chain 1 QGAWLGAPEPWSPLLD", "screen value": "0.00302 average fractional NGS count over selection days 2 and 3 (reads of this peptide / all reads for the bait, averaged over …"},
      {"variant": "chain 1 QGAWLGAPEPWPPLLD", "screen value": "0.00101 average fractional NGS count over selection days 2 and 3 (reads of this peptide / all reads for the bait, averaged over …"},
      {"variant": "chain 1 QGAWLGAPEPWDPLLD", "screen value": "0.000215 average fractional NGS count over selection days 2 and 3 (reads of this peptide / all reads for the bait, averaged over …"},
      {"variant": "chain 1 QGAWLGAPEPWKPLLD", "screen value": "0.00114 average fractional NGS count over selection days 2 and 3 (reads of this peptide / all reads for the bait, averaged over …"},
      {"variant": "chain 1 QGAWLGAPEPWMPLLD", "screen value": "0.00442 average fractional NGS count over selection days 2 and 3 (reads of this peptide / all reads for the bait, averaged over …"},
      {"variant": "chain 1 QGAWLGAPEPWIPLLD", "screen value": "0.000686 average fractional NGS count over selection days 2 and 3 (reads of this peptide / all reads for the bait, averaged over …"},
      {"variant": "chain 1 QGAWLGAPEPWNPLLD", "screen value": "0.00209 average fractional NGS count over selection days 2 and 3 (reads of this peptide / all reads for the bait, averaged over …"},
      {"variant": "chain 1 QGAWLGAPEPWVPLLD", "screen value": "0.00994 average fractional NGS count over selection days 2 and 3 (reads of this peptide / all reads for the bait, averaged over …"},
      {"variant": "chain 1 QGAWLGAPEPWEPRLD", "screen value": "0.000211 average fractional NGS count over selection days 2 and 3 (reads of this peptide / all reads for the bait, averaged over …"},
      {"variant": "chain 1 QGAWLGAPEPWEPFLD", "screen value": "0.00284 average fractional NGS count over selection days 2 and 3 (reads of this peptide / all reads for the bait, averaged over …"},
      {"variant": "chain 1 QGAWLGAPEPWEPHLD", "screen value": "0.000429 average fractional NGS count over selection days 2 and 3 (reads of this peptide / all reads for the bait, averaged over …"},
      {"variant": "chain 1 QGAWLGAPEPWEPKLD", "screen value": "0.00411 average fractional NGS count over selection days 2 and 3 (reads of this peptide / all reads for the bait, averaged over …"},
      {"variant": "chain 1 QGAWLGAPEPWEPWLD", "screen value": "0.000273 average fractional NGS count over selection days 2 and 3 (reads of this peptide / all reads for the bait, averaged over …"},
      {"variant": "chain 1 QGAWLGAPEPWEPPLD", "screen value": "0.000127 average fractional NGS count over selection days 2 and 3 (reads of this peptide / all reads for the bait, averaged over …"},
      {"variant": "chain 1 QGAWFGAPEPWEPLLD", "screen value": "0.000119 average fractional NGS count over selection days 2 and 3 (reads of this peptide / all reads for the bait, averaged over …"},
      {"variant": "chain 1 QGAWLGAPEPWENLLD", "screen value": "0.000298 average fractional NGS count over selection days 2 and 3 (reads of this peptide / all reads for the bait, averaged over …"},
      {"variant": "chain 1 QGAWLGAPEPWERLLD", "screen value": "0.00106 average fractional NGS count over selection days 2 and 3 (reads of this peptide / all reads for the bait, averaged over …"},
      {"variant": "chain 1 QGAWLGAPEPWESLLD", "screen value": "0.000244 average fractional NGS count over selection days 2 and 3 (reads of this peptide / all reads for the bait, averaged over …"},
      {"variant": "chain 1 QGAWLGAPEPWEDLLD", "screen value": "0.00132 average fractional NGS count over selection days 2 and 3 (reads of this peptide / all reads for the bait, averaged over …"},
      {"variant": "chain 1 QGAWLGAPEPWETLLD", "screen value": "0.000368 average fractional NGS count over selection days 2 and 3 (reads of this peptide / all reads for the bait, averaged over …"},
      {"variant": "chain 1 QGAWLGAPEPWEMLLD", "screen value": "0.00222 average fractional NGS count over selection days 2 and 3 (reads of this peptide / all reads for the bait, averaged over …"},
      {"variant": "chain 1 QGAWLGAPEPWEFLLD", "screen value": "0.0013 average fractional NGS count over selection days 2 and 3 (reads of this peptide / all reads for the bait, averaged over …"},
      {"variant": "chain 1 QGAWLGAPFPWEPLLD", "screen value": "0.000135 average fractional NGS count over selection days 2 and 3 (reads of this peptide / all reads for the bait, averaged over …"},
      {"variant": "chain 1 QGAWLGAPMPWEPLLD", "screen value": "0.00679 average fractional NGS count over selection days 2 and 3 (reads of this peptide / all reads for the bait, averaged over …"},
      {"variant": "chain 1 QGAWLGAPQPWEPLLD", "screen value": "0.000696 average fractional NGS count over selection days 2 and 3 (reads of this peptide / all reads for the bait, averaged over …"},
      {"variant": "chain 1 QGAWLGAPNPWEPLLD", "screen value": "0.000953 average fractional NGS count over selection days 2 and 3 (reads of this peptide / all reads for the bait, averaged over …"},
      {"variant": "chain 1 QGAWLGAPSPWEPLLD", "screen value": "0.00294 average fractional NGS count over selection days 2 and 3 (reads of this peptide / all reads for the bait, averaged over …"},
      {"variant": "chain 1 QGAWLGAPPPWEPLLD", "screen value": "0.00127 average fractional NGS count over selection days 2 and 3 (reads of this peptide / all reads for the bait, averaged over …"},
      {"variant": "chain 1 QGAWLGAPEPPEPLLD", "screen value": "0.0013 average fractional NGS count over selection days 2 and 3 (reads of this peptide / all reads for the bait, averaged over …"},
      {"variant": "chain 1 QGAWLGAPEPAEPLLD", "screen value": "0.00423 average fractional NGS count over selection days 2 and 3 (reads of this peptide / all reads for the bait, averaged over …"},
      {"variant": "chain 1 QGAWLGAPEPGEPLLD", "screen value": "0.0061 average fractional NGS count over selection days 2 and 3 (reads of this peptide / all reads for the bait, averaged over …"},
      {"variant": "chain 1 QGAWLGAPEPFEPLLD", "screen value": "0.0024 average fractional NGS count over selection days 2 and 3 (reads of this peptide / all reads for the bait, averaged over …"},
      {"variant": "chain 1 QGAWLGAPEPVEPLLD", "screen value": "0.000951 average fractional NGS count over selection days 2 and 3 (reads of this peptide / all reads for the bait, averaged over …"},
      {"variant": "chain 1 QGAWLGAPEPQEPLLD", "screen value": "0.00182 average fractional NGS count over selection days 2 and 3 (reads of this peptide / all reads for the bait, averaged over …"}
    ]}
  ]
}
